# Data as given in patent US20240101981A1 (LINNO PHARMACEUTICALS, published 2024).
# B1: hARSA-9056VHH-his (other)
# chain: RPPNIVLIFADDLGYGDLGCYGHPSSTTPNLDQLAAGGLRFTDFYVPVSLCTPSRAALLTGRLPVRMGMYPGVLVPSSRGGLPLEEVTVAEVLAARGYLTGMAGKWHLGVGPEGAFLPPHQGFHRFLGIPYSHDQGPCQNLTCFPPATPCDGGCDQGLVPIPLLANLSVEAQPPWLPGLEARYMAFAHDLMADAQRQDRPFFLYYASHHTHYPQFSGQSFAERSGRGPFGDSLMELDAAVGTLMTAIGDLGLLEETLVIFTADNGPETMRMSRGGCSGLLRCGKGTTYEGGVREPALAFWPGHIAPGVTHELASSLDLLPTLAALAGAPLPNVTLDGFDLSPLLLGTGKSPRQSLFFYPSYPDEVRGVFAVRTGKYKAHFFTQGSAHSDTTADPACHASSSLTAHEPPLLYDLSKDPGENYNLLGGVAGATPEVLQALKQLQLLKAQLDAAVTFGPSQVARGEDPALQICCHPGCTPRPACCHCPDPHAGGGGSGGGGSGGGGSEVQLVESGGGLVQPGGSLRLSCAASGHAYGGNYMGWFRQAPGKGLEGVAVLYTGGGSTYYADSVKGRFTISEDNSKNTVYLQMNSLRAEDTAVYYCALALGSARWYTSSLDARAYNIWGQGTLVTVSSGGGGSHHHHHH
# notes: Expressed in HEK293F cells
# B2: hARSA (enzyme)
# chain: RPPNIVLIFADDLGYGDLGCYGHPSSTTPNLDQLAAGGLRFTDFYVPVSLCTPSRAALLTGRLPVRMGMYPGVLVPSSRGGLPLEEVTVAEVLAARGYLTGMAGKWHLGVGPEGAFLPPHQGFHRFLGIPYSHDQGPCQNLTCFPPATPCDGGCDQGLVPIPLLANLSVEAQPPWLPGLEARYMAFAHDLMADAQRQDRPFFLYYASHHTHYPQFSGQSFAERSGRGPFGDSLMELDAAVGTLMTAIGDLGLLEETLVIFTADNGPETMRMSRGGCSGLLRCGKGTTYEGGVREPALAFWPGHIAPGVTHELASSLDLLPTLAALAGAPLPNVTLDGFDLSPLLLGTGKSPRQSLFFYPSYPDEVRGVFAVRTGKYKAHFFTQGSAHSDTTADPACHASSSLTAHEPPLLYDLSKDPGENYNLLGGVAGATPEVLQALKQLQLLKAQLDAAVTFGPSQVARGEDPALQICCHPGCTPRPACCHCPDPHA
# notes: Control enzyme without the VHH; also called rhARSA; hARSA-his
# Biological target: T1, human transferrin (human, UniProt P02787 20-698)
# T1 construct: mature; also called hTf; native human transferrin
# Experiment: ELISA, biotinylated human transferrin on streptavidin plate, anti-hARSA detection
# Procedure: A 96-well plate was coated with streptavidin (0.1 μg/mL, 100 μL/well) and incubated overnight at 4° C.; after washing the plate three times with buffer PBST, the 96-well plate was blocked with 200 μL of PBST containing 1% bovine serum albumin (BSA) for 1 hour at room temperature. The plate was then washed three times with PBST, added with biotinylated human transferrin (1 μg/mL, 100 μL/well) and incubated at room temperature for 1 hour. […] The plate was then washed three times with PBST, added with goat anti-hARSA antibody (R&D, AF2485) (100 μL/well) at a concentration of 0.125 ug/mL to each well and incubated at room temperature for 1 hour. The plate was then washed three times with PBST, added with 100 μL anti-goat IgG-HRP to each well and incubated at room temperature for 0.5 hour, followed by the same washing steps aforementioned. The plate was then added with 100 μL/well of TMB substrate solution and incubated at room temperature for 15 minutes. The reaction was then stopped by adding 100 μL/well of the stop solution, and the absorbance was read at 450 nm using an ELISA reader.
# T1 sequence (P02787 20-698): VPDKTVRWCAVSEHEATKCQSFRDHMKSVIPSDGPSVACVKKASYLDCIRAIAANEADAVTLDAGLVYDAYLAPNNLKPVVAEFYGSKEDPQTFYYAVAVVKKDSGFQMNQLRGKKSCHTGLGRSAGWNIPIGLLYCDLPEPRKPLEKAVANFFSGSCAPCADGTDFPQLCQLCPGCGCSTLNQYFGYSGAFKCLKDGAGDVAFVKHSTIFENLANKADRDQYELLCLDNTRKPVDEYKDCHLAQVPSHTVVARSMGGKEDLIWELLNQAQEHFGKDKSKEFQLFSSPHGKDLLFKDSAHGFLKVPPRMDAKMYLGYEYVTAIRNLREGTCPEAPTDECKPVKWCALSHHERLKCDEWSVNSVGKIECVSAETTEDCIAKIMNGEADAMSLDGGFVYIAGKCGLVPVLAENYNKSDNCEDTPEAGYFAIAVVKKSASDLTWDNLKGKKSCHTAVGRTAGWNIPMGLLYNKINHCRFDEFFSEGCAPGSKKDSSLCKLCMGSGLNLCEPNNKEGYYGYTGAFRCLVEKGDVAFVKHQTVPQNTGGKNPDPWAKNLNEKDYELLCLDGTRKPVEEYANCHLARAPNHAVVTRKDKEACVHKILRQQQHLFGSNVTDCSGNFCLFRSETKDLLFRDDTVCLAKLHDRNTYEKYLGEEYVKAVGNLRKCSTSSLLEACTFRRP
row,Binder,binding result
1,B1,binds
2,B2,no binding
